The record followed here is doi:10.1101/2021.05.24.445460 (bioRxiv, 2021).

This experiment deals with repeat-domain of Tau (Tau^RD) (human, UniProt P10636-8 244-373). The experiment is described as follows: co-IP.
Sequence of repeat-domain of Tau (Tau^RD) (P10636 561-690): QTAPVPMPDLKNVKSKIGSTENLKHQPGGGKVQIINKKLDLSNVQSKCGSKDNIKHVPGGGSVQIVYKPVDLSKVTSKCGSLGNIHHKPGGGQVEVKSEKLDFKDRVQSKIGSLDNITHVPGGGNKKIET

B1: microglial P2Y12 receptor (receptor, mouse (endogenous in N9), UniProt Q9CPV9 1-347, looked up)
chain: MDVPGVNTTSANTTFSPGTSTLCVRDYKITQVLFPLLYTVLFFAGLITNSLAMRIFFQIRSKSNFIIFLKNTVISDLLMILTFPFKILSDAKLGAGPLRTLVCQVTSVTFYFTMYISISFLGLITIDRYLKTTRPFKTSSPSNLLGAKILSVVIWAFMFLISLPNMILTNRRPKDKDVTKCSFLKSEFGLVWHEIVNYICQVIFWINFLIVIVCYSLITKELYRSYVRTRGSAKVPKKKVNVKVFIIIAVFFICFVPFHFARIPYTLSQTRAVFDCSAENTLFYVKESTLWLTSLNACLDPFIYFFLCKSFRNSLTSMLRCSNSTSTSGTNKKKGQEGGEPSEETPM
Turning to B1, the “fold band intensity against cell control, 1 uM Tau^RD” value stood at 1.2 fold and the “fold band intensity against cell control, 5 uM Tau^RD” value is 2 fold.
